The data set has as its system Escherichia coli TOP10. The data set can be described thus: shrunken log2 fold change of peptide-encoding DNA abundance (4.5 h post-induction vs induction); higher = less antimicrobial activity (less host growth inhibition). As to conditions: time post-induction: 4.5 h; library: site-saturation at positions 5, 18, 19, 20.
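Further: peptides expressed intracellularly from a pBAD plasmid library in pooled LB shake-flask culture, induced with 0.3% L-arabinose, DNA abundance read by NGS, three biological replicates, DESeq2 with apeglm shrinkage.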

In the case of RRIRKRPPRLPRPRPRPKEKPRP, the “shrunken log2 fold change” value was determined as 0.0508. Take RRIRERPPRLPRPRPRPFIRPRP: the “shrunken log2 fold change” value is -0.854. With RRIRWRPPRLPRPRPRPCNDPRP the figure was -0.172; with RRIRQRPPRLPRPRPRPDCGPRP, 2.88; with RRIRHRPPRLPRPRPRPNQMPRP, -0.0904.

RRIRHRPPRLPRPRPRPLQHPRP: the “shrunken log2 fold change” value worked out at 0.0675. For RRIRTRPPRLPRPRPRPLPQPRP the value was 0.165; for RRIRPRPPRLPRPRPRPNGHPRP, -0.0534; for RRIRYRPPRLPRPRPRPAKFPRP, -0.331.

For the sequence RRIRKRPPRLPRPRPRPGKWPRP, the “shrunken log2 fold change” value came to 0.184.

Regarding RRIRRRPPRLPRPRPRPEEKPRP, the “shrunken log2 fold change” value is -0.00133. With RRIRQRPPRLPRPRPRPWSQPRP the figure was 0.0535; with RRIRPRPPRLPRPRPRPRIEPRP, 0.175; with RRIRHRPPRLPRPRPRPDIGPRP, 0.0697.

In the case of RRIRKRPPRLPRPRPRPVNWPRP, the “shrunken log2 fold change” value came to 0.192. For RRIRIRPPRLPRPRPRPMWKPRP the value was -0.0693; for RRIRRRPPRLPRPRPRPENYPRP, 0.0652; for RRIRDRPPRLPRPRPRPPDLPRP, 0.201. With RRIRVRPPRLPRPRPRPVWGPRP the figure was 1.8; with RRIRIRPPRLPRPRPRPHQSPRP, -0.406; with RRIRCRPPRLPRPRPRPKFDPRP, -0.0305. Turning to RRIRQRPPRLPRPRPRPMFAPRP, the “shrunken log2 fold change” value came out at 0.0682. For RRIRARPPRLPRPRPRPWLSPRP the value was 0.18; for RRIRWRPPRLPRPRPRPMKEPRP, -0.23. RRIRNRPPRLPRPRPRPAPWPRP: the “shrunken log2 fold change” value was determined as 0.266. Regarding RRIRIRPPRLPRPRPRPEPVPRP, the “shrunken log2 fold change” value worked out at 0.14. With RRIRDRPPRLPRPRPRPPNSPRP the figure was -0.0992; with RRIRSRPPRLPRPRPRPSRYPRP, -0.148; with RRIRMRPPRLPRPRPRPVKLPRP, -0.0873. For RRIRVRPPRLPRPRPRPHGDPRP the value was 0.00703; for RRIRGRPPRLPRPRPRPMACPRP, -0.119; for RRIRVRPPRLPRPRPRPWNWPRP, -0.00795. Turning to RRIRDRPPRLPRPRPRPRACPRP, the “shrunken log2 fold change” value turned out to be 0.389. With RRIRCRPPRLPRPRPRPFFQPRP the figure was -0.152; with RRIRMRPPRLPRPRPRPACLPRP, 0.236.

On to RRIRGRPPRLPRPRPRPVHGPRP, for which the “shrunken log2 fold change” value is -0.244. With RRIRMRPPRLPRPRPRPYDSPRP the figure was 0.00275; with RRIRVRPPRLPRPRPRPNMWPRP, -0.327; with RRIRARPPRLPRPRPRPQYSPRP, -0.0321. For RRIRVRPPRLPRPRPRPNYEPRP the value was -0.0505.

As to RRIRKRPPRLPRPRPRPKKDPRP, the “shrunken log2 fold change” value was found to be 0.337. For RRIRARPPRLPRPRPRPLIIPRP the value was -0.415; for RRIRVRPPRLPRPRPRPESMPRP, -0.149. As for RRIRERPPRLPRPRPRPDQAPRP, the “shrunken log2 fold change” value was -0.00195.

For RRIRFRPPRLPRPRPRPRLHPRP, the “shrunken log2 fold change” value came out at 0.0811. With RRIRSRPPRLPRPRPRPNGGPRP the figure was -0.0284; with RRIRIRPPRLPRPRPRPSCVPRP, -0.544; with RRIRFRPPRLPRPRPRPASLPRP, -0.227.

In the case of RRIRSRPPRLPRPRPRPQMQPRP, the “shrunken log2 fold change” value came to 0.00783. With RRIRYRPPRLPRPRPRPMTCPRP, the “shrunken log2 fold change” value was -0.122. For RRIRWRPPRLPRPRPRPIGMPRP the value was -0.131; for RRIRGRPPRLPRPRPRPYQSPRP, 0.00308. With RRIRYRPPRLPRPRPRPGINPRP the figure was -0.227; with RRIRWRPPRLPRPRPRPQEMPRP, -0.0845; with RRIRVRPPRLPRPRPRPGESPRP, 0.0694. For RRIRHRPPRLPRPRPRPKNGPRP the value was -0.0347. As for RRIRWRPPRLPRPRPRPMTAPRP, the “shrunken log2 fold change” value was determined as 0.473.

As to RRIRHRPPRLPRPRPRPAQLPRP, the “shrunken log2 fold change” value was -0.3.

In the case of RRIRFRPPRLPRPRPRPTCAPRP, the “shrunken log2 fold change” value was determined as 0.564. With RRIRCRPPRLPRPRPRPVIEPRP the figure was -0.141.

As for RRIRDRPPRLPRPRPRPPKFPRP, the “shrunken log2 fold change” value is -0.154. With RRIRIRPPRLPRPRPRPGEGPRP the figure was 0.38; with RRIRHRPPRLPRPRPRPCYGPRP, -0.238.

For the sequence RRIRRRPPRLPRPRPRPFKLPRP, the “shrunken log2 fold change” value is -0.0153. For RRIRSRPPRLPRPRPRPPDVPRP the value was 0.14; for RRIRERPPRLPRPRPRPKSEPRP, 0.196. With RRIRARPPRLPRPRPRPDIYPRP the figure was 0.115; with RRIRGRPPRLPRPRPRPMHFPRP, -0.0109; with RRIRNRPPRLPRPRPRPQNEPRP, -0.331. On to RRIRNRPPRLPRPRPRPRHGPRP, for which the “shrunken log2 fold change” value is -0.0314.

On to RRIRKRPPRLPRPRPRPQERPRP, for which the “shrunken log2 fold change” value was -0.0146. With RRIRGRPPRLPRPRPRPRNWPRP the figure was 1.35; with RRIRIRPPRLPRPRPRPNAWPRP, 0.213; with RRIRWRPPRLPRPRPRPSCDPRP, 0.574. For RRIRLRPPRLPRPRPRPWTWPRP the value was 0.0307; for RRIRRRPPRLPRPRPRPRNPPRP, 0.345. For RRIRYRPPRLPRPRPRPWFCPRP the value was -0.0679; for RRIRCRPPRLPRPRPRPTYEPRP, -0.717. Regarding RRIRIRPPRLPRPRPRPIRCPRP, the “shrunken log2 fold change” value was 0.0793. As to RRIRHRPPRLPRPRPRPEYMPRP, the “shrunken log2 fold change” value was -0.05. With RRIRCRPPRLPRPRPRPGPKPRP the figure was 0.3; with RRIRERPPRLPRPRPRPTQKPRP, 0.337; with RRIRDRPPRLPRPRPRPRCCPRP, 0.18. For RRIRQRPPRLPRPRPRPRGQPRP the value was 0.726. On to RRIRERPPRLPRPRPRPVAAPRP, for which the “shrunken log2 fold change” value turned out to be 0.247. As to RRIRMRPPRLPRPRPRPIMDPRP, the “shrunken log2 fold change” value was -0.133. With RRIRGRPPRLPRPRPRPQDIPRP the figure was -0.398; with RRIRGRPPRLPRPRPRPYSKPRP, -0.2; with RRIRARPPRLPRPRPRPTELPRP, 0.595. On to RRIRFRPPRLPRPRPRPIMQPRP, for which the “shrunken log2 fold change” value is -0.497. On to RRIRQRPPRLPRPRPRPLCGPRP, for which the “shrunken log2 fold change” value came to 0.0478. With RRIRGRPPRLPRPRPRPYEVPRP the figure was 0.0996; with RRIRPRPPRLPRPRPRPNEYPRP, -0.783. With RRIRTRPPRLPRPRPRPFDLPRP the figure was -0.29; with RRIRTRPPRLPRPRPRPAIYPRP, -0.372. For RRIRIRPPRLPRPRPRPMNDPRP the value was -0.00303; for RRIRLRPPRLPRPRPRPFQMPRP, -0.193. Take RRIRFRPPRLPRPRPRPAPMPRP: the “shrunken log2 fold change” value came out at 0.282. For RRIRDRPPRLPRPRPRPCFEPRP the value was 0.708; for RRIRHRPPRLPRPRPRPPAMPRP, 0.0064; for RRIRCRPPRLPRPRPRPDKGPRP, 0.0974.

Regarding RRIRMRPPRLPRPRPRPQCRPRP, the “shrunken log2 fold change” value came out at 0.253. RRIRQRPPRLPRPRPRPEFEPRP: the “shrunken log2 fold change” value is -0.0193. In the case of RRIRQRPPRLPRPRPRPRMWPRP, the “shrunken log2 fold change” value is -0.429. With RRIRMRPPRLPRPRPRPSFGPRP the figure was 0.0121; with RRIRFRPPRLPRPRPRPVTSPRP, -0.0369; with RRIRARPPRLPRPRPRPFHWPRP, 0.277.

As to RRIRKRPPRLPRPRPRPMCGPRP, the “shrunken log2 fold change” value turned out to be 0.0595.

As to RRIRHRPPRLPRPRPRPSCCPRP, the “shrunken log2 fold change” value was -0.343. For RRIRFRPPRLPRPRPRPGHSPRP the value was -0.0168. With RRIRNRPPRLPRPRPRPGYLPRP the figure was 0.114. With RRIRGRPPRLPRPRPRPSAHPRP the figure was 1.12; with RRIRPRPPRLPRPRPRPLQQPRP, 0.176. As for RRIRTRPPRLPRPRPRPNEEPRP, the “shrunken log2 fold change” value is -0.0204. With RRIRTRPPRLPRPRPRPRAGPRP the figure was 0.41; with RRIRWRPPRLPRPRPRPHALPRP, -0.118; with RRIRSRPPRLPRPRPRPISIPRP, 0.0336.

On to RRIRYRPPRLPRPRPRPEGIPRP, for which the “shrunken log2 fold change” value is -0.0155.

For the sequence RRIRSRPPRLPRPRPRPFSVPRP, the “shrunken log2 fold change” value was -0.416. On to RRIRRRPPRLPRPRPRPDAPPRP, for which the “shrunken log2 fold change” value worked out at 0.888. For RRIRWRPPRLPRPRPRPLDHPRP the value was 0.165. With RRIRGRPPRLPRPRPRPEASPRP the figure was 0.708.

Turning to RRIRLRPPRLPRPRPRPCIGPRP, the “shrunken log2 fold change” value was -0.147. For RRIRLRPPRLPRPRPRPYDDPRP the value was -0.167.

Regarding RRIRPRPPRLPRPRPRPMKSPRP, the “shrunken log2 fold change” value is -0.0679.

(Values after the supplement of paper PMC9112550, “Optimization of the antimicrobial peptide Bac7 by deep mutational scanning” (BMC Biology, 2022).)
